From paper PMC11298613

Target: HA-bromoTAG-PPM1H

decrease in tail phosphorylation of dTAG-SMAD3 by immunoblot in U2OS cells co-expressing both, 2 h TGF-β with BDPIC 0.1-10 μM against DMSO: 50%
Substance: FLAG-dTAG-SMAD3
